Laboratory results from article PMC9482650, “Quantitative fragmentomics allow affinity mapping of interactomes” (Nature Communications, 2022).

T1: PDZRN3_1, Q9UPQ7
T1 sequence (Q9UPQ7 244-349, limits assumed, looked up): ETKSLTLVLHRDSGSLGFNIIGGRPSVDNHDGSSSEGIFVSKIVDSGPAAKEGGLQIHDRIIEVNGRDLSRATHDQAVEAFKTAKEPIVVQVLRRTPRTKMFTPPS

T2: LIN7C, Q9NUP9
T2 sequence (Q9NUP9 88-185, limits assumed, looked up): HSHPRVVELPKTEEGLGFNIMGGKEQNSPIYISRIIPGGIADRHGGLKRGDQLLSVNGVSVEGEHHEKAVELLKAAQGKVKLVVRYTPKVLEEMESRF

T3: LNX2_2, Q8N448
T3 sequence (Q8N448 334-432, limits assumed, looked up): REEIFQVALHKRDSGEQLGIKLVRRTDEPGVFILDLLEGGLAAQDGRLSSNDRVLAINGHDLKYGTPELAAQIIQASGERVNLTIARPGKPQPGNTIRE

T4: ARHGAP21, Q5T5U3
T4 sequence (Q5T5U3 45-169, limits assumed, looked up): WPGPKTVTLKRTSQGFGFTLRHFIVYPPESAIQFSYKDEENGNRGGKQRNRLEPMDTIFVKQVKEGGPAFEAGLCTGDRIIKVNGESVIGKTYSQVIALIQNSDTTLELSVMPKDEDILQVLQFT

T5: HTRA4, P83105
T5 sequence (P83105 378-476, limits assumed, looked up): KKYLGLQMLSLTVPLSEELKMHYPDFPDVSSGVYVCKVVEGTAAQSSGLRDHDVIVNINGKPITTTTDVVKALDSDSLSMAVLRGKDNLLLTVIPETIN

T6: APBA2_2, Q99767
T6 sequence (Q99767 654-744, limits assumed, looked up): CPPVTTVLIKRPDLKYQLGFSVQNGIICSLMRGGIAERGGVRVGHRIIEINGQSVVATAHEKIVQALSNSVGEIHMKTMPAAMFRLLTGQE


Key:
Assay in all cases: holdup assay
Parameters in all cases: key: below the threshold = too weak to quantify, mostly under pKd 3.1 to 4
Settings in all cases: plain residues with an end cap or a label only (N-terminal biotin on a linker: ado-ado)
GRIP2_7, Q9C0E4 = target: GRIP2_7, Q9C0E4
DLG4_2, P78352 = target: DLG4_2, P78352
MAGI2_3, Q86UL8 = target: MAGI2_3, Q86UL8
Inadl_8, Q8NI35 = target: Inadl_8, Q8NI35
PDLIM1, O00151 = target: PDLIM1, O00151
PDZRN3_1, Q9UPQ7 = target: T1, PDZRN3_1, Q9UPQ7
GRASP, Q7Z6J2 = target: GRASP, Q7Z6J2
FRMPD4, Q14CM0 = target: FRMPD4, Q14CM0
LIN7C, Q9NUP9 = target: T2, LIN7C, Q9NUP9
LAP2, Q96RT1 = target: LAP2, Q96RT1
IL16_3, Q14005 = target: IL16_3, Q14005
GORASP1, Q9BQQ3 = target: GORASP1, Q9BQQ3
Inadl_5, Q8NI35 = target: Inadl_5, Q8NI35
MAGI2_5, Q86UL8 = target: MAGI2_5, Q86UL8
TJP1_2, Q07157 = target: TJP1_2, Q07157
GOPC, Q9HD26 = target: GOPC, Q9HD26
LDB3, O75112 = target: LDB3, O75112
LNX2_2, Q8N448 = target: T3, LNX2_2, Q8N448
DLG2_3, Q15700 = target: DLG2_3, Q15700
GRIP2_4, Q9C0E4 = target: GRIP2_4, Q9C0E4
MAGI1_1, Q96QZ7 = target: MAGI1_1, Q96QZ7
IL16_4, Q14005 = target: IL16_4, Q14005
DLG4_1, P78352 = target: DLG4_1, P78352
DLG4_3, P78352 = target: DLG4_3, P78352
Inadl_4, Q8NI35 = target: Inadl_4, Q8NI35
ARHGAP21, Q5T5U3 = target: T4, ARHGAP21, Q5T5U3
LNX1_1, Q8TBB1 = target: LNX1_1, Q8TBB1
MAGI2_2, Q86UL8 = target: MAGI2_2, Q86UL8
DLG1_2, Q12959 = target: DLG1_2, Q12959
HTRA4, P83105 = target: T5, HTRA4, P83105
FRMPD3, Q5JV73 = target: FRMPD3, Q5JV73
HTRA1, Q92743 = target: HTRA1, Q92743
APBA2_2, Q99767 = target: T6, APBA2_2, Q99767

MAGI1_1, Q96QZ7, sequence (Q96QZ7 1-106): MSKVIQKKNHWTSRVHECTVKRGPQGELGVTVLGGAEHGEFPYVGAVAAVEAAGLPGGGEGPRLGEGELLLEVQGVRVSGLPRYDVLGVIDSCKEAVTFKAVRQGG
GRASP, Q7Z6J2, sequence (Q7Z6J2 96-193): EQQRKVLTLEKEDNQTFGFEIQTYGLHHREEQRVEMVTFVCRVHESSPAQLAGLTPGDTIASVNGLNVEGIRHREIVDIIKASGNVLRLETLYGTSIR
DLG4_2, P78352, sequence (P78352 155-259): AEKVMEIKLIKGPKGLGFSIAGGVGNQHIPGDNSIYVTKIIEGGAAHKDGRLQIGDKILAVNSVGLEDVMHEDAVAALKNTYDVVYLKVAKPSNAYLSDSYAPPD
DLG1_2, Q12959, sequence (Q12959 314-412): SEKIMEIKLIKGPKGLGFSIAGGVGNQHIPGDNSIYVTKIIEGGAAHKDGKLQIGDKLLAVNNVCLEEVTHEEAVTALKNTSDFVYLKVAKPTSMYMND
IL16_4, Q14005, sequence (Q14005 1229-1329): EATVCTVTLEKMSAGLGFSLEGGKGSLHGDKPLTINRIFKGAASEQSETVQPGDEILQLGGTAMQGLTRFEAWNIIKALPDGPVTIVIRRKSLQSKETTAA
Inadl_4, Q8NI35, sequence (Q8NI35 547-651): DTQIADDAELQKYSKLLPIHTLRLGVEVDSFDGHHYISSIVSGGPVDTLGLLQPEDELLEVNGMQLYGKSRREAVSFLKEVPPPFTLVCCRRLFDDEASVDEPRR
MAGI2_2, Q86UL8, sequence (Q86UL8 410-522): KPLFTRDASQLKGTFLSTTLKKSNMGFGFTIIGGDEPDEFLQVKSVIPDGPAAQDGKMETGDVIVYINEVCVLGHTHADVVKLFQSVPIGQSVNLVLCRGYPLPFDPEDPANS
DLG4_3, P78352, sequence (P78352 306-403): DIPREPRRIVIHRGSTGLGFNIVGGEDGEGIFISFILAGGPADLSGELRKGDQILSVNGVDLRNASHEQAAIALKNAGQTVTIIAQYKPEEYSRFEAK
TJP1_2, Q07157, sequence (Q07157 181-274): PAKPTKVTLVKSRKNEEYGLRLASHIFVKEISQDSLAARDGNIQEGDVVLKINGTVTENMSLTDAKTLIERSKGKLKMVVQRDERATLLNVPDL
Inadl_8, Q8NI35, sequence (Q8NI35 1425-1530): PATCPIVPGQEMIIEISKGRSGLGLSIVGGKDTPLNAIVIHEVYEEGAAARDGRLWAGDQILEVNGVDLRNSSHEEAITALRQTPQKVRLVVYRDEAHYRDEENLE
Inadl_5, Q8NI35, sequence (Q8NI35 673-780): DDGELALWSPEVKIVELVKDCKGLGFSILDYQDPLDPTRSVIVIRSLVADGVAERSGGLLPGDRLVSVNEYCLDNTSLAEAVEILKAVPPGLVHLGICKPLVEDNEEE
MAGI2_5, Q86UL8, sequence (Q86UL8 915-1017): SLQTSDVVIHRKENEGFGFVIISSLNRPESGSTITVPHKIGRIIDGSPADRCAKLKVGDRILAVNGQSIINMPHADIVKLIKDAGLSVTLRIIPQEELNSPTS
GRIP2_4, Q9C0E4, sequence (Q9C0E4 446-548): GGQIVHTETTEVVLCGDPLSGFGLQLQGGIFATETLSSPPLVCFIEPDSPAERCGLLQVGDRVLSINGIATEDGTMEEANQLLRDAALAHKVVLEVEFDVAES
LAP2, Q96RT1, sequence (Q96RT1 other isoform, or with tags, fused parts or gaps): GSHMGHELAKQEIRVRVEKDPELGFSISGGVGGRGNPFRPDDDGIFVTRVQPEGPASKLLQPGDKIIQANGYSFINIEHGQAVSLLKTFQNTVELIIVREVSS
PDLIM1, O00151, sequence (O00151 1-87): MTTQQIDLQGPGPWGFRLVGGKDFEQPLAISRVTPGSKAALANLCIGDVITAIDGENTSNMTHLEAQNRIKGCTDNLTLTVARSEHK
HTRA1, Q92743, sequence (Q92743 360-477): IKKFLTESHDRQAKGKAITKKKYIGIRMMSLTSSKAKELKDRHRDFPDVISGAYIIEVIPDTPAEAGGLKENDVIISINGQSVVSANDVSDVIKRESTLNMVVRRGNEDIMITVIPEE
MAGI2_3, Q86UL8, sequence (Q86UL8 600-682): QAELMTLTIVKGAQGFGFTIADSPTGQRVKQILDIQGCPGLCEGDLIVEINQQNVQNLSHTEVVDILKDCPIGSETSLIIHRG
LNX1_1, Q8TBB1, sequence (Q8TBB1 261-371): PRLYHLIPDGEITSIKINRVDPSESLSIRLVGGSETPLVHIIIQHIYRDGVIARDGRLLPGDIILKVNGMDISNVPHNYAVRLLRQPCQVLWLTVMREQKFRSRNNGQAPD
LDB3, O75112, sequence (O75112 1-94): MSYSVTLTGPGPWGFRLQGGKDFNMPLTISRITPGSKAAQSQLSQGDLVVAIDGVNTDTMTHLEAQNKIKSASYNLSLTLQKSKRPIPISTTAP
FRMPD3, Q5JV73, sequence (Q5JV73 12-100): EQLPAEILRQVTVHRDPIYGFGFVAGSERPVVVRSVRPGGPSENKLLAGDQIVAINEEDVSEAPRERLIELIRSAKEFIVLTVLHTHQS
GORASP1, Q9BQQ3, sequence (Q9BQQ3 1-208): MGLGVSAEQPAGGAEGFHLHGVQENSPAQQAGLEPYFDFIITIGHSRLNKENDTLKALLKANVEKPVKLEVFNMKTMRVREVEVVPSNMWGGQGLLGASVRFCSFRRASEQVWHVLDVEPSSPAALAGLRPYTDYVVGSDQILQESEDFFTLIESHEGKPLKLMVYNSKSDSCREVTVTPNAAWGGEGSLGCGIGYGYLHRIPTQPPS
FRMPD4, Q14CM0, sequence (Q14CM0 67-160): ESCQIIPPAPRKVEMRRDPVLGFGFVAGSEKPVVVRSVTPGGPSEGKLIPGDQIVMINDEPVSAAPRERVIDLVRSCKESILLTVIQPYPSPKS
GRIP2_7, Q9C0E4, sequence (Q9C0E4 934-1023): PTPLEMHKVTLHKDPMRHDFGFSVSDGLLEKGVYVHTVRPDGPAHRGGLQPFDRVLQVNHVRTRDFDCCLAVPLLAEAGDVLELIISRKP
DLG4_1, P78352, sequence (P78352 62-152): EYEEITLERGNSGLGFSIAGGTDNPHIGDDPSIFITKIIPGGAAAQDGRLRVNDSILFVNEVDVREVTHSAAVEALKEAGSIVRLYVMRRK
IL16_3, Q14005, sequence (Q14005 1107-1207): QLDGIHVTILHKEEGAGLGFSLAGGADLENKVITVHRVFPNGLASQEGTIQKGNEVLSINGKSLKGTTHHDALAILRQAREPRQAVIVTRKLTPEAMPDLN

Binder | pKd (GRIP2_7, Q9C0E4) | pKd (DLG4_2, P78352) | pKd (MAGI2_3, Q86UL8) | pKd (Inadl_8, Q8NI35) | pKd (PDLIM1, O00151) | pKd (PDZRN3_1, Q9UPQ7) | pKd (GRASP, Q7Z6J2) | pKd (FRMPD4, Q14CM0) | pKd (LIN7C, Q9NUP9) | pKd (LAP2, Q96RT1) | pKd (IL16_3, Q14005) | pKd (GORASP1, Q9BQQ3) | pKd (Inadl_5, Q8NI35) | pKd (MAGI2_5, Q86UL8) | pKd (TJP1_2, Q07157) | pKd (GOPC, Q9HD26) | pKd (LDB3, O75112) | pKd (LNX2_2, Q8N448) | pKd (DLG2_3, Q15700) | pKd (GRIP2_4, Q9C0E4) | further results
RQSILFSTEV [BCR, P11274] | 3.66 | 4.81 | below the threshold | 4.49 | below the threshold | 4.03 | 5.04 | below the threshold | 3.63 | 4.39 | below the threshold | below the threshold | 3.49 | 5.17 | 3.62 | 4.5 | below the threshold | 4.71 | 4 | below the threshold | pKd (MAGI1_1, Q96QZ7): below the threshold; pKd (IL16_4, Q14005): 3.54; pKd (DLG4_1, P78352): 4.67; pKd (DLG4_3, P78352): 3.7; pKd (Inadl_4, Q8NI35): below the threshold; pKd (ARHGAP21, Q5T5U3): below the threshold; pKd (LNX1_1, Q8TBB1): 4.85; pKd (MAGI2_2, Q86UL8): 3.7; pKd (DLG1_2, Q12959): 4.85; pKd (HTRA4, P83105): 4.82; pKd (FRMPD3, Q5JV73): below the threshold; pKd (HTRA1, Q92743): 4.47; pKd (APBA2_2, Q99767): below the threshold
PLDSQQHTEV [FAT1, Q14517] | below the threshold | 4.8 | below the threshold | below the threshold | below the threshold | below the threshold | 4.34 | below the threshold | below the threshold | 3.61 | below the threshold | below the threshold | below the threshold | 4.54 | 3.62 | 3.81 | below the threshold | 4.35 | below the threshold | below the threshold | pKd (MAGI1_1, Q96QZ7): below the threshold; pKd (IL16_4, Q14005): below the threshold; pKd (DLG4_1, P78352): 4.41; pKd (DLG4_3, P78352): below the threshold; pKd (Inadl_4, Q8NI35): below the threshold; pKd (ARHGAP21, Q5T5U3): 3.85; pKd (LNX1_1, Q8TBB1): below the threshold; pKd (MAGI2_2, Q86UL8): below the threshold; pKd (DLG1_2, Q12959): 4.99; pKd (HTRA4, P83105): 4.26; pKd (FRMPD3, Q5JV73): below the threshold; pKd (HTRA1, Q92743): 4; pKd (APBA2_2, Q99767): below the threshold
SRPTKGPTLL [PLEKHH2, Q8IVE3] | below the threshold | 3.7 | below the threshold | 3.61 | below the threshold | 3.69 | 5.22 | 3.88 | below the threshold | below the threshold | below the threshold | 3.78 | below the threshold | below the threshold | below the threshold | below the threshold | below the threshold | below the threshold | below the threshold | below the threshold | pKd (MAGI1_1, Q96QZ7): below the threshold; pKd (IL16_4, Q14005): below the threshold; pKd (DLG4_1, P78352): 3.91; pKd (DLG4_3, P78352): below the threshold; pKd (Inadl_4, Q8NI35): below the threshold; pKd (ARHGAP21, Q5T5U3): 4.02; pKd (LNX1_1, Q8TBB1): below the threshold; pKd (MAGI2_2, Q86UL8): 4.2; pKd (DLG1_2, Q12959): 3.82; pKd (HTRA4, P83105): below the threshold; pKd (FRMPD3, Q5JV73): below the threshold; pKd (HTRA1, Q92743): 4.16; pKd (APBA2_2, Q99767): below the threshold
LTAQEQPVYI [APBA1, Q02410] | 3.78 | below the threshold | below the threshold | below the threshold | below the threshold | below the threshold | below the threshold | below the threshold | below the threshold | below the threshold | below the threshold | 3.87 | 3.86 | below the threshold | 3.55 | below the threshold | below the threshold | 4.9 | 3.68 | below the threshold | pKd (MAGI1_1, Q96QZ7): below the threshold; pKd (IL16_4, Q14005): 3.57; pKd (DLG4_1, P78352): below the threshold; pKd (DLG4_3, P78352): below the threshold; pKd (Inadl_4, Q8NI35): below the threshold; pKd (ARHGAP21, Q5T5U3): 3.57; pKd (LNX1_1, Q8TBB1): below the threshold; pKd (MAGI2_2, Q86UL8): 3.52; pKd (DLG1_2, Q12959): below the threshold; pKd (HTRA4, P83105): 4.89; pKd (FRMPD3, Q5JV73): below the threshold; pKd (HTRA1, Q92743): 5.07; pKd (APBA2_2, Q99767): below the threshold
RTQSSDSAYV [GJD2, Q9UKL4] | below the threshold | 3.65 | below the threshold | 3.7 | below the threshold | below the threshold | 3.48 | 3.86 | below the threshold | below the threshold | below the threshold | 3.67 | 3.5 | below the threshold | below the threshold | below the threshold | below the threshold | 4.65 | below the threshold | below the threshold | pKd (MAGI1_1, Q96QZ7): below the threshold; pKd (IL16_4, Q14005): below the threshold; pKd (DLG4_1, P78352): below the threshold; pKd (DLG4_3, P78352): below the threshold; pKd (Inadl_4, Q8NI35): below the threshold; pKd (ARHGAP21, Q5T5U3): 3.62; pKd (LNX1_1, Q8TBB1): 3.9; pKd (MAGI2_2, Q86UL8): below the threshold; pKd (DLG1_2, Q12959): 3.88; pKd (HTRA4, P83105): below the threshold; pKd (FRMPD3, Q5JV73): 3.65; pKd (HTRA1, Q92743): 4.6; pKd (APBA2_2, Q99767): below the threshold
